Measurements taken from US20250361298A1 (CARTOGRAPHY BIOSCIENCES, published 2025).
Substitutions are numbered along the chain they refer to. Starred links: 1 amine or outer side, 2 acyl side, 3 side chain; linkers in the order of their positions; H or OH if unused. Positions of bridges follow the written chain, without caps; N, C: chain ends. Primed or numbered codes have the meaning given here. PEG2′ = PEG2 spacer at the C-terminus, followed by 3-mercaptopropionate; CH2 = C([*:1])[*:2]

T1: LY6G6D cyclic peptide Ac-RDC*YLGDLC*NS-PEG2-3-mercaptopropionate (bridge 3-9 via CH2; not fully specified; printed as Ac-RDC*YLGDLC*NS-PEG2-3-mercaptopropionate)
T1 construct: Represents the most membrane-proximal stretch of LY6G6D; also called octomer cyclic peptide
T1 peptide: Ac-RDCYLGDLCNS-{PEG2′-3‑mercaptopropionate}

T2: Human LY6G6D ectodomain fused to mouse IgG2A Fc (monovalent display, knob-in-hole) (human, biotinylated for BLI capture (site not stated))
T2 chain: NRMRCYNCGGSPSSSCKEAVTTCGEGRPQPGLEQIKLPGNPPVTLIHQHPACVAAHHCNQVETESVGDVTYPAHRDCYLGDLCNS

T3: Cynomolgus LY6G6D ectodomain fused to mouse IgG2A Fc (monovalent display, knob-in-hole) (cynomolgus, UniProt O95868 20-104 (human entry))
T3 construct: Same design as the human construct; Tags are not described; also called cyno LY6G6D-mouse Fc fusion antigen; cynomolgus monkey LY6G6D
T3 chain: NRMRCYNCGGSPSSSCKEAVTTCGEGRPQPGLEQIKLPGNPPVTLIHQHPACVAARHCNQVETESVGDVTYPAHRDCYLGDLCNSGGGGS

B1: CB21-512 (antibody, V domains shown)
VH: EVQLVESGGGVVQPGRSLRLSCAASGFTFSSYGMHWVRQAPGKGLEWVAVLWYDGINKNYADSVKGRFAISRDNSKNTLYLQMNSLRVEDTAVYFCVRVQGDYWGQGTLVTVSS
VL: DIQMTQSPSSLSASVGDRVTITCRASQGIRNDLTWYQQKPGKAPKRLIYDTSSLQSGVPSRFSGSRSGTEFTLTISSLQPEDFASYFCLQHNIYPFTFGQGTKLEIK
notes: Human Fc formats; monovalent antibody in BLI
B2: CB21-502 (antibody, V domains shown)
VH: B1 VH with A61V
VL: B1 VL with R66G, E70D
notes: as for B1
B3: CB21-470 (antibody, V domains shown)
VH: B1 VH with S30N, F95Y
VL: B1 VL with I93S
notes: as for B1
B4: CB21-522 (antibody, V domains shown)
VH: EVQLVQSGAEVKKPGASVKVSCKASGYTFTGYFIHWVRQAPGQGLEWMGWINPNSGGTYYAQEFQGRVTMTRDTSISTAYMELIRLRSDDSAVYYCARDISLVGDYWGQGTLVTVSS
VL: DVVMTQSPLSLPVTLGQPASISCRSSQSLVYSDGNTYLNWFQQRPGQSPRRLIYKVSNRDSGVPERFSGIGSGTDFTLEISRVEAEDVGVYYCMQGSHWPLTFGGGTKVEIK
notes: as for B1
B5: CB21-469 (antibody, V domains shown)
VH: EVQLVESGGGLVQPGGSLRLSCAASGFTFSSYAMNWVRQAPGKGLEWVSGISGNGGRIYYADSVKGRFTISRDNSKNTLYLQMNSLRVEDTAVYYCAKDLDVWGKGTTVTVSS
VL: DVVMTQTPLSSPVTLGQSASISCRSSQSLVHSDGNTYLNWLHQRPGQPPRLLIYKISNRFSGVPDRFSGSGAGTDFTLKISRVEAEDVGVYYCMQATQFPLTFGGGTKLEIK
notes: Cloned into knob/hole human Fc and light chain vectors; IgG and bispecific TCE formats were made; BLI used a monovalent antibody format
B6: CP1481 (heavy chain from CB21-513, light chain from CB21-500) (antibody, V domains shown)
VH: B5 VH with E6D, Q13E, N35T, N54S, R57V, I58T, Y59D, L81M, V88A, D101G
VL: B5 VL with S18P, S28N, H42Q
notes: Chain-shuffled antibody
B7: CP1479 (heavy chain from CB21-513, light chain from CB21-469) (antibody, V domains shown)
VH: B5 VH with E6D, Q13E, N35T, N54S, R57V, I58T, Y59D, L81M, V88A, D101G
VL: B5 VL
notes: Chain-shuffled antibody
B8: CP1476 (heavy chain from CB21-500, light chain from CB21-469) (antibody, V domains shown)
VH: B5 VH with A40V, W47G, I51M, N54S, I70M, T78M, L79V, V88A, V93L
VL: B5 VL
notes: Chain-shuffled antibody
B9: CP1473 (heavy chain from CB21-498, light chain from CB21-469) (antibody, V domains shown)
VH: B5 VH with V2M, W47C, D62E, N77S, L79F, V88A
VL: B5 VL
notes: Chain-shuffled antibody
B10: CP1478 (heavy chain from CB21-500, light chain from CB21-513) (antibody, V domains shown)
VH: B5 VH with A40V, W47G, I51M, N54S, I70M, T78M, L79V, V88A, V93L
VL: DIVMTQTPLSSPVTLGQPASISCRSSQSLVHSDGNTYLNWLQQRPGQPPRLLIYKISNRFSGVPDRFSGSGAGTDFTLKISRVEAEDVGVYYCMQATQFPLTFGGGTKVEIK
notes: Chain-shuffled antibody
B11: CB21-498-142 (antibody, V domains shown)
VH: B5 VH with W47G, N54S, D62E, T69Q, N77S, L79F, V88A
VL: B5 VL with G34A, A72S
B12: CB21-513 (antibody, V domains shown)
VH: B5 VH with E6D, Q13E, N35T, N54S, R57V, I58T, Y59D, L81M, V88A, D101G
VL: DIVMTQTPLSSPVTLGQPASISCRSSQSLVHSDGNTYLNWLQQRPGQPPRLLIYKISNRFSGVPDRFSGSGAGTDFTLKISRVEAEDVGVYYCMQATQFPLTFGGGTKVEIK
notes: as for B1
B13: CP1471 (heavy chain from CB21-469, light chain from CB21-500) (antibody, V domains shown)
VH: B5 VH
VL: B5 VL with S18P, S28N, H42Q
notes: Chain-shuffled antibody
B14: CP1475 (heavy chain from CB21-498, light chain from CB21-513) (antibody, V domains shown)
VH: B5 VH with V2M, W47C, D62E, N77S, L79F, V88A
VL: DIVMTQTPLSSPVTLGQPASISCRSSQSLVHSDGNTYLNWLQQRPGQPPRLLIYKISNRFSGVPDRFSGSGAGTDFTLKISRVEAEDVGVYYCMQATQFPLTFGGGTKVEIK
notes: Chain-shuffled antibody
B15: CP1474 (heavy chain from CB21-498, light chain from CB21-500) (antibody, V domains shown)
VH: B5 VH with V2M, W47C, D62E, N77S, L79F, V88A
VL: B5 VL with S18P, S28N, H42Q
notes: Chain-shuffled antibody
B16: CB21-498 (antibody, V domains shown)
VH: B5 VH with V2M, W47C, D62E, N77S, L79F, V88A
VL: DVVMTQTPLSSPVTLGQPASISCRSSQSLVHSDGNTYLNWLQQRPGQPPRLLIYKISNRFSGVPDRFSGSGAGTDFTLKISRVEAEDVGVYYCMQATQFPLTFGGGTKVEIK
notes: as for B1
B17: CB21-500 (antibody, V domains shown)
VH: B5 VH with A40V, W47G, I51M, N54S, I70M, T78M, L79V, V88A, V93L
VL: B5 VL with S18P, S28N, H42Q
notes: as for B1
B18: CB21-471 (antibody, V domains shown)
VH: EVQLVESGGGVVQPGRSLRLSCAASGFTFSSYGMHWVRQVPGKGLEWVAVIWYDGSNKDYVDSVKGRFTISRDNSKNTLYLQMNSLRAEDTAVYYCARPGEGDYWGQGTLVTVSS
VL: DIQMTQSPSSLSASVGDRVTITCRASQGIRNDFGWYQQKPGKAPKRLIYGASSLQSGVPSRFSGSGSGTEFTLTISSLQPEDFATYYCLQQNSYPWTFGQGTKVEIK
notes: as for B1
B19: CB21-499-177 (antibody, V domains shown)
VH: B18 VH with V40A, G55A, D59E, V61A, D62P, V93I
VL: B18 VL with I29V, Y36F, V104L
B20: CB21-477 (antibody, V domains shown)
VH: B18 VH with V40A, V61A
VL: B18 VL with F33L, K42R, G50A
notes: as for B1
B21: CB21-499 (antibody, V domains shown)
VH: B18 VH with V40A, V61A, V93I
VL: B18 VL with I29V, Y36F, V104L
notes: as for B1

Key:
[1] = biological target: T1, LY6G6D cyclic peptide …; test: flow binding assay on cyclic-peptide beads
[2] = biological target: T2, Human LY6G6D ectodomain fused to mouse …; test: BLI, chain shuffle round 1; antigen not named in the table (LY6G6D ectodomain as in Example 3)
[3] = biological target: T3, Cynomolgus LY6G6D ectodomain fused to …; test: SPR, Biacore 8K+, cyno LY6G6D-mouse Fc captured by anti-mouse antibody on CM5, antibody as analyte 50-0.7813 nM, 25 C
Experimental: (§1) SPR multipoint kinetic analyses against human and cynomolgus monkey LY6G6D was also performed. LY6G6D binding kinetics were performed via surface plasmon resonance (SPR) on a Biacore 8K+. A Mouse Antibody Capture Kit, type 2 (Cytiva 29215281) was used for amine coupling to a CM5 sensor chip (BR100530) and the immobilization was performed exactly according to the manufacturer's standard settings. To begin an SPR run, 7 startup cycles were run following chip immobilization to establish sensor stability. In these, LY6G6D-mouse Fc fusion antigen was first flowed into just flow cell 2 at 10 uL/min at a 5 nM concentration with a 120 sec contact time. 1×HBS-EP+ buffer, pH 7.6 was then flowed at 30 μL/min with a 420 sec contact time into the chip. Finally regeneration solution (10 mM Glycine-HCl pH 1.7) was flowed at 30 uL/min with a 120 sec contact time.
(§2) After this point, 16 analysis cycles were run, 8 first with human LY6G6D-mouse Fc fusion antigen and 8 next for cyno LY6G6D-mouse Fc fusion antigen. In both antigen formats, the antigen was captured at 10 uL/min at a 5 nM concentration diluted into 1×HBS-EP+ buffer, pH 7.6 with a 120 sec contact time. Next, selected antibodies diluted into 1×HBS-EP+ buffer, pH 7.6 were run as the analytes across a 7-point dilution series, 50 nM to 0.7813 nM with two-fold dilutions. A contact time of 300 sec followed by dissociation time of 1200 sec at a flow rate of 30 μL/min was used. Regeneration solution (10 mM Glycine-HCl pH 1.7) was flowed at 30 μL/min with a 120 sec contact time. Finally, a wait step of 60 sec with flow rate of 30 μL/min 1×HBS-EP+ buffer, pH 7.6 was used to re-establish sensor stability. These SPR binding studies were performed at 25° C.

[4] = biological target: T2, Human LY6G6D ectodomain fused to mouse …; test: SPR, Biacore 8K+, LY6G6D-mouse Fc captured by anti-mouse antibody on CM5, antibody as analyte 50-0.7813 nM, 25 C
Experimental: as §1, §2

Binder	binding result [1]	Kd [2]	koff [2]	kon [2]	also measured
B1	binds	–	–	–	–
B2	binds	–	–	–	–
B3	binds	–	–	–	–
B4	binds	–	–	–	–
B5	binds	–	–	–	–
B6	–	17.6 nM	0.000264 s⁻¹	15000 M⁻¹ s⁻¹	–
B7	–	16.5 nM	0.00053 s⁻¹	32200 M⁻¹ s⁻¹	–
B8	–	3.15 nM	0.000413 s⁻¹	131000 M⁻¹ s⁻¹	–
B9	–	0.554 nM	8.4e-05 s⁻¹	152000 M⁻¹ s⁻¹	–
B10	–	5.35 nM	0.000705 s⁻¹	132000 M⁻¹ s⁻¹	–
B11	–	–	–	–	Kd [3]: 5.57 nM; koff [3]: 0.000448 s⁻¹; kon [3]: 80500 M⁻¹ s⁻¹; Kd [4]: 3.2 nM; koff [4]: 0.00031 s⁻¹; kon [4]: 96700 M⁻¹ s⁻¹
B12	binds	–	–	–	–
B13	–	12.7 nM	0.0017 s⁻¹	134000 M⁻¹ s⁻¹	–
B14	–	0.91 nM	0.000105 s⁻¹	116000 M⁻¹ s⁻¹	–
B15	–	0.699 nM	9.87e-05 s⁻¹	141000 M⁻¹ s⁻¹	–
B16	binds	–	–	–	–
B17	binds	–	–	–	–
B18	binds	–	–	–	–
B19	–	–	–	–	Kd [3]: 0.9 nM; koff [3]: 0.000149 s⁻¹; kon [3]: 166000 M⁻¹ s⁻¹; Kd [4]: 0.385 nM; koff [4]: 7.12e-05 s⁻¹; kon [4]: 185000 M⁻¹ s⁻¹
B20	binds	–	–	–	–
B21	binds	–	–	–	–
